Experimental data from patent publication EP3970798A1 (NMI Naturwissenschaftliches und Medizinisches Institut an …, dated 2022).

Molecular target: receptor binding domain (RBD) of the SARS-CoV-2 Spike protein (SARS-CoV-2, UniProt P0DTC2 319-541)

B1: nanobody NM1230 (VHH)
VHH: QVQLVESGGGLVRPGGSLRLSCVGSGFTFSGYAMNWYRQAPGKALELVAGISNAGDLTHYEEPMKGRVAISRANDKNTVYLQMDDLKPEDTAVYRCHAPGVRVGTGERKDVWGQGAQVTVSS
With B1 the IC50 was 2.12 nM and the Kd was 8.23 nM.

B2: nanobody NM1229 (VHH)
VHH: EVQLQESGGGLVQPGESLRLSCAASGRTHDWYTMGWFRQAPGKEREFVARINWSSGMTYYADSVKGRFTISRDNPKNTVYLQMNSLTPDDTAVYYCNVHPFTSPDYWGQGTRVTVSS
B2 showed an IC50 of 38 nM.
